Eight molecules from PMC5660093, “Structure of SgK223 pseudokinase reveals novel mechanisms of homotypic and heterotypic association” (Nature Communications, 2017) can be followed below.

The term stoichiometry N denotes the number of molecules, sites or subunits per partner or assembly.

The chains are these.
B1: SgK223-αN1-PsK-Cter F974A (domain or fragment, human, UniProt Q86YV5 932-1406, looked up)
chain: GSTQLQLHGLLSNISSKEGTYAKLGGLYTQSLARLVAKCEDLAMGGQKKELHFNENNWSLFKLTCNKPCCDSGDAIYYCATCSEDPGSTYAVKICKAPEPKTVSYCSPSVPVHFNIQQDCGHFVASVPSSMLSSPDAPKDPVPALPTHPPAQEQDCVVVITREVPHQTASDFVRDSAASHQAEPEAYERRVCFLLLQLCNGLEHLKEHGIIHRDLCLENLLLVHCTLQAGPGPAPAPAPAPAPAAAAPPCSSAAPPAGGTLSPAAGPASPEGPREKQLPRLIISNFLKAKQKPGGTPNLQQKKSQARLAPEIVSASQYRKFDEFQTGILIYELLHQPNPFEVRAQLRERDYRQEDLPPLPALSLYSPGLQQLAHLLLEADPIKRIRIGEAKRVLQCLLWGPRRELVQQPGTSEEALCGTLHNWIDMKRALMMMKFAEKAVDRRRGVELEDWLCCQYLASAEPGALLQSLKLLQLL
notes: SgK223 (Pragmin), human, residues 932-1406; source: E. coli C41(DE3), purified (Ni-NTA, SEC)
B2: SgK223-αN1-PsK-Cter (WT) (domain or fragment, human, UniProt Q86YV5 932-1406, looked up)
chain: B1 chain with A43F
notes: SgK223 (Pragmin), human, residues 932-1406: αN1 helix, pseudokinase domain and C-terminal helices; Modified pCOLD IV vector with an N-terminal His TEV cleavage tag; Monomer MW printed as 54 kDa; A seleno-methionine form was also crystallised; also called WT-SgK223-αN1-PsK-Cter; SgK223-WT (αN1-PsK-Cter); source: E. coli C41(DE3), purified (Ni-NTA, SEC)
B3: SgK223-αN1-PsK-Cter W1354A (domain or fragment, human, UniProt Q86YV5 932-1406, looked up)
chain: B1 chain with A43F, W423A
notes: SgK223 (Pragmin), human, residues 932-1406; also called alanine mutation of Trp1354; source: E. coli C41(DE3), purified (Ni-NTA, SEC)
B4: SgK223-αN1-PsK-Cter F1271A (domain or fragment, human, UniProt Q86YV5 932-1406, looked up)
chain: B1 chain with A43F, F340A
notes: SgK223 (Pragmin), human, residues 932-1406; also called SgK223-αN1-PsK-Cter Phe1271Ala; His-SgK223-αN1-PsK-Cter; source: E. coli C41(DE3), purified (Ni-NTA, SEC); not shown: His tag, N-terminal, kept
B5: SgK223-αN1-PsK-Cter Y1282A (domain or fragment, human, UniProt Q86YV5 932-1406, looked up)
chain: B1 chain with A43F, Y351A
notes: as for B1
B6: SgK223 αN1-PsK-Cter I1243A (domain or fragment, human, UniProt Q86YV5 932-1406, looked up)
chain: B1 chain with A43F, I312A
notes: as for B1
B7: SgK269-αN1-PsK-Cter (WT) (domain or fragment, human, UniProt Q9H792 1267-1746, looked up)
chain: GIQKPQRQALYRGLENREEVVGKIRSLHTDALKKLAVKCEDLFMAGQKDQLRFGVDSWSDFRLTSDKPCCEAGDAVYYTASYAKDPLNNYAVKICKSKAKESQQYYHSLAVRQSLAVHFNIQQDCGHFLAEVPNRLLPWEDPDDPEKDEDDMEETEEDAKGETDGKNPKPCSEAASSQKENQGVMSKKQRSHVVVITREVPCLTVADFVRDSLAQHGKSPDLYERQVCLLLLQLCSGLEHLKPYHVTHCDLRLENLLLVHYQPGGTAQGFGPAEPSPTSSYPTRLIVSNFSQAKQKSHLVDPEILRDQSRLAPEIITATQYKKCDEFQTGILIYEMLHLPNPFDENPELKEREYTRADLPRIPFRSPYSRGLQQLASCLLNPNPSERILISDAKGILQCLLWGPREDLFQTFTACPSLVQRNTLLQNWLDIKRTLLMIKFAEKSLDREGGISLEDWLCAQYLAFATTDSLSCIVKILQHR
notes: SgK269 (PEAK1), human, residues 1267-1746: αN1 helix, pseudokinase domain and C-terminal helices; also called SgK269-WT (αN1-PsK-Cter); SgK269-WT; source: E. coli C41(DE3), purified (Ni-NTA, SEC)
B8: His tag cleaved SgK269-αN1-PsK-Cter F1609A (domain or fragment, human, UniProt Q9H792 1267-1746, looked up)
chain: B7 chain with F343A
notes: SgK269 (PEAK1), human, residues 1267-1746; also called SgK269-αN1-PsK-Cter Phe1609Ala; source: E. coli C41(DE3), purified (Ni-NTA, SEC); not shown: His tag, N-terminal, cleaved

Positions count from the first letter of the chain named.

Data set [1] deals with the molecule itself. The experiment in a line: AUC; sedimentation velocity, WT and mutants each at 3.0 μM; 20 mM Tris-HCl, 150 mM NaCl, pH 8.0, 20 °C.
Data set [2] deals with the molecule itself. The experiment in a line: AUC; sedimentation velocity at 0.6, 1.2 and 2.3 μM; 20 mM Tris-HCl, 150 mM NaCl, pH 8.0, 20 °C; dimer to monomers.
The target in the data set “SgK269-αN1-PsK-Cter (WT)” is B7. The experiment in a line: SEC; SgK223 and SgK269 proteins mixed equimolar at 29.06 μM, 15 min on ice; Superdex 200 Increase 10/300 GL; 20 mM Tris pH 8.5, 200 mM NaCl, 5% glycerol, 1 mM TCEP; preformed homodimers mixed. Particulars: both partners purified. In general terms: In gel filtration, larger molecules generally elute earlier.
Data set [3] addresses B8. The experiment in a line: anion exchange chromatography (Mono Q); the two αG mutants mixed equimolar at 20 μM, overnight on ice, diluted five times, Mono Q 5/50 GL, linear NaCl gradient, 20 mM Tris pH 8.5; peaks analysed by SDS-PAGE. Particulars: both partners purified.
Data set [4] concerns the molecule itself. The experiment in a line: AUC; sedimentation velocity, WT and oligomer-interface mutants each at 20 μM; 20 mM Tris-HCl, 150 mM NaCl, pH 8.0, 20 °C.
Data set [5] deals with the molecule itself. The experiment in a line: SAXS; inline gel filtration (Superdex 200 5/150); 20 mM Tris pH 8.5, 200 mM NaCl, 1 mM TCEP, 5% glycerol, 12 °C; WT injected at 2.2 mg/ml, I1243A at 3.5 mg/ml.
Data set [6] concerns the molecule itself. The experiment in a line: SEC; peaks from the Mono Q column on Superdex 200 Increase 10/300 GL; 20 mM Tris pH 8.5, 200 mM NaCl, 1 mM TCEP.

Take B1: the binding result in data set [1] is recorded as “binds”.

B2: the “stoichiometry N” value in data set [2] worked out at 2. For the same molecule, the binding result with SgK269-αN1-PsK-Cter (WT) is “binds”.

On to B3, for which the binding result in data set [1] is listed as “binds”.

For the molecule B4, the binding result in data set [3] was “binds”. Also, the “stoichiometry N” value in data set [4] stood at 2.

As to B5, in data set [4], the “stoichiometry N” value is 2.

On to B6, for which the “stoichiometry N” value in data set [5] is 2.

As for B7, the binding result in data set [4] is reported as “binds”.

As to B8, the “stoichiometry N” value in data set [6] is 2.
